Experimental data reported in patent US20090018093.
Read-outs that look alike come from different tables or passages of the source.

How the values were obtained:
[1] = molecular target: T1, Immunoglobulin E (IgE) (Macaca fascicularis) (UniProt A0A7N9DC98); assay: inhibition
T1 sequence: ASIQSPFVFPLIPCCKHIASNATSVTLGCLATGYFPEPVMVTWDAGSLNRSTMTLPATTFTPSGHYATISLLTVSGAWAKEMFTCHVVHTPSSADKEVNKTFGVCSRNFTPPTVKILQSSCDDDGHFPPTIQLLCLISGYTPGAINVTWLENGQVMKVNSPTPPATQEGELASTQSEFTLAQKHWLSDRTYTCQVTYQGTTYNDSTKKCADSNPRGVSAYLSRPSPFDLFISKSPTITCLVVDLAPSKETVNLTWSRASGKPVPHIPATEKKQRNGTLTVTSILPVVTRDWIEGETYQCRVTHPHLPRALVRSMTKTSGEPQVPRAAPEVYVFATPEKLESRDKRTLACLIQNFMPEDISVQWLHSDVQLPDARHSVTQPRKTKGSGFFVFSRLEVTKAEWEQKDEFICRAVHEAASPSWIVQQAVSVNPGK

[2] = test system: Immunoglobulin E (IgE) (Homo sapiens), P01854-1; assay: filter
Sequence of Immunoglobulin E (IgE) (Homo sapiens), P01854-1 (P01854 other isoform, or with tags, fused parts or gaps): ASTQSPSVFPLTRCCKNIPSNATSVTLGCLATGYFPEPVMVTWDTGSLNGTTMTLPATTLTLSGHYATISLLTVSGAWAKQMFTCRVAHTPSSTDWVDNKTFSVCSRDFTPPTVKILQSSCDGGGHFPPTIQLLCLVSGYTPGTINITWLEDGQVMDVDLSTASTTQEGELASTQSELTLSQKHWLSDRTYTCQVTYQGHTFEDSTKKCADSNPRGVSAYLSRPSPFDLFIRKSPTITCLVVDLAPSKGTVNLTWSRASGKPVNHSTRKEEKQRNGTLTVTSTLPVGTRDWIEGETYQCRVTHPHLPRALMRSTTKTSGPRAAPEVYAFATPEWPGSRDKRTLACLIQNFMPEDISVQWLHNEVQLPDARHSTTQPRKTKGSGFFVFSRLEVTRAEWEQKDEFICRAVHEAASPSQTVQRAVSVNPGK

[3] = test system: Immunoglobulin E (IgE) (Homo sapiens), P01854-1; assay: inhibition
[4] = 2'-OMe C,U, deoxy A,G, FACS, 15 nM IgE
[5] = dRmY: 2'-deoxy A,G, 2'-OMe C,U, 1xPBS, BSA, tRNA, ssDNA, 25 C
[6] = 3' idT, no inhibition of monkey IgE:FceR1a-Fc up to 250 nM

Sequence: AGCCUGGGGACCCAUGGGGGGCU [ARC445]
- IC50 ([1]; dRmY: 2'-deoxy A,G, 2'-OMe C,U, ELISA, monkey IgE:FceR1a-Fc, human IC50 63 nM in same assay): 161 nM
- Kd ([2]; dRmY: 2'-deoxy A,G, 2'-OMe C,U, dPBS Ca/Mg + 0.1 mg/mL BSA, RT, 22 nM in PBS with tRNA + ssDNA (Table 10)): 3 nM

Sequence: GGGAAAAGCGAAUCAUACACAAGAGGUCUUACAGAUCCUGUGUAGUGGUUCGAUACAUGCGGGGCUCCGCCAGAGACCAACCGAGAA [rRfY clone SEQ 14]
- IC50 ([3]; 2'-F C,U, ELISA FceR1-Fc, FACS 17.3 nM (Table 25)): 26.8 nM
- Kd ([2]; 2'-F C and U, biphasic, KD2 99.5 nM, 1xSHMCK + tRNA, RT): 1.08 nM

Sequence: AGCCUGGGGACCCAUGGGGGGCU [ARC1667]
- IC50 ([3]; 2'-OMe/2'-deoxy mix, dI18,dI20, PS as printed, 3' idT [18=dI, 20=dI (G parent), 24=3' inverted dT, phosphorothioate linkage N's left out], FACS, 2.5 nM IgE): 2.3 nM
- Kd ([2]; 2'-OMe/2'-deoxy mix, dI18,dI20, PS as printed, 3' idT [18=dI, 20=dI (G parent), 24=3' inverted dT, phosphorothioate linkage N's left out], DPBS Mg/Ca, 0.1 mg/mL BSA, RT): 0.4 nM

Sequence: GGGAAAAGCGAAUCAUACACAAGAGUGCCGAGGCAUUGCUUGGUAUGGUUCCGGUCUUGUCGGGGCUCCGCCAGAGACCAACCGAGAA [rRfY clone SEQ 19]
- IC50 ([3]; 2'-F C,U, ELISA FceR1-Fc, FACS 9.9 nM (Table 25)): 7.4 nM
- Kd ([2]; 2'-F C and U, biphasic, KD2 17.4 nM, 1xSHMCK + tRNA, RT): 0.095 nM

Sequence: UAGCCUGGGGACCCAUGGGGGGCUA [ARC446]
- IC50 [3, 4]: 33.8 nM
- Kd [2, 5]: 43 nM

Sequence: GGGGCTACTTTATCCGTCCCTCCTAGTGGGTAGCCCC [ARC475 with 3' idT]
- IC50 [1, 6]: > 250 nM

Sequence: GGGGCTACTTTATCCGTCCCTCCTAGTGGGTAGCCCC [ARC475]
- IC50 ([3]; FACS, 15 nM IgE): 17.1 nM
- Kd [2]: 0.5 nM

Sequence: AGCCUGGGGACCCAUGGGGGGCU [ARC1644]
- IC50 ([3]; 2'-OMe/2'-deoxy mix, dI16,dI20, PS, 3' idT [16=dI, 20=dI (G parent), 24=3' inverted dT, phosphorothioate linkage N's left out (5^6, 7^8, 8^9, 15^16, 17^18, 18^19, 19^20, 20^21)], FACS, 2.5 nM IgE): 5.2 nM
- Kd ([2]; 2'-OMe/2'-deoxy mix, dI16,dI20, PS, 3' idT [16=dI, 20=dI (G parent), 24=3' inverted dT, phosphorothioate linkage N's left out (5^6, 7^8, 8^9, 15^16, 17^18, 18^19, 19^20, 20^21)], DPBS Mg/Ca, 0.1 mg/mL BSA, RT): 1.7 nM

Sequence: GGGGCTACTTTATCCGTTCCTCCTAGTGGGTAGCCCC [ARC480]
- IC50 ([3]; FACS, 15 nM IgE): 9.7 nM
- Kd [2]: 0.2 nM

Sequence: GUUCUGGGGACCCAUGGGGGAAC [ARC442]
- IC50 [3, 4]: 58.9 nM
- Kd ([2]; dRmY: 2'-deoxy A,G, 2'-OMe C,U, 1xPBS, BSA, 1 mg/mL tRNA, ssDNA, 25 C): 174 nM

Sequence: GGGAAAAGCGAAUCAUACACAAGACGUCAGUAAGAUUGAGUGUAUGGUUCCUGGUGGACAAUAAUGGCUCCGCCAGAGACCAACCGAGAA [rRfY clone SEQ 21]
- IC50 ([3]; 2'-F C,U, ELISA FceR1-Fc, FACS 14.4 nM (Table 25)): 3.7 nM
- Kd ([2]; 2'-F C and U, biphasic, KD2 27.1 nM, 1xSHMCK + tRNA, RT): 0.183 nM

Sequence: AGCCUGGGGACCCAUGGGGGGCU [ARC1728]
- IC50 ([3]; 2'-OMe/2'-deoxy mix, dI, PS, 3' idT [18=dI, 20=dI (G parent), 24=3' inverted dT, phosphorothioate linkage N's left out (5^6, 7^8, 8^9, 15^16, 17^18, 18^19, 19^20, 20^21)], FACS, 2.5 nM IgE): 13.2 nM
- Kd ([2]; 2'-OMe/2'-deoxy mix, dI, PS, 3' idT [18=dI, 20=dI (G parent), 24=3' inverted dT, phosphorothioate linkage N's left out (5^6, 7^8, 8^9, 15^16, 17^18, 18^19, 19^20, 20^21)], DPBS Mg/Ca, 0.1 mg/mL BSA, RT): 2.3 nM

Sequence: AGCCUGGGGACCCAUGGGGGGCU [ARC1729]
- IC50 ([3]; 2'-OMe/2'-deoxy mix, dI16,dI18,dI20, PS as printed, 3' idT [16=dI, 18=dI, 20=dI (G parent), 24=3' inverted dT, 2'-OMe at 1-5,7,10-15,17,22,23, phosphorothioate linkage N's left out (5^6, 7^8, 8^9, 15^16, 17^18, 18^19, 19^20, 20^21)], FACS, 2.5 nM IgE): 2.9 nM
- Kd ([2]; 2'-OMe/2'-deoxy mix, dI16,dI18,dI20, PS as printed, 3' idT [16=dI, 18=dI, 20=dI (G parent), 24=3' inverted dT, 2'-OMe at 1-5,7,10-15,17,22,23, phosphorothioate linkage N's left out (5^6, 7^8, 8^9, 15^16, 17^18, 18^19, 19^20, 20^21)], DPBS Mg/Ca, 0.1 mg/mL BSA, RT): 1 nM

Sequence: AGCCUGGGGACCCAUGGGGGGCU [ARC1572]
- IC50 ([3]; 2'-OMe/2'-deoxy mix, PS linkages as in Table 17, 3' idT [phosphorothioate linkages (internal N, left out) between 5-6, 7-8, 8-9, 15-16, 17-18, 18-19, 19-20, 20-21, 2'-OMe/2'-deoxy mix (positions not given), 3' inverted dT at 24], FACS, 2.5 nM IgE): 22.8 nM
- Kd ([2]; 2'-OMe/2'-deoxy mix, PS linkages as in Table 17, 3' idT [phosphorothioate linkages (internal N, left out) between 5-6, 7-8, 8-9, 15-16, 17-18, 18-19, 19-20, 20-21, 2'-OMe/2'-deoxy mix (positions not given), 3' inverted dT at 24], DPBS Mg/Ca, 0.1 mg/mL BSA, RT): 0.3 nM

Sequence: AGCCUGGGGACCCAUGGGGGGCU [ARC1666]
- IC50 ([1]; mAmGmCmCmUdGmGdG-s-dGmAmCmCmCmAmU-s-dI-s-mGdI-s-dGdI-s-dGmCmU-3T [2'-OMe 1-5,7,10-15,17,22,23, dI16,dI18,dI20 (inosine, parent base G), phosphorothioate 8/9,15/16,16/17,18/19,20/21 (N linkage letters left out), 3' inverted dT24], ELISA, monkey IgE:FceR1a-Fc, human IC50 5 nM in same assay): 8 nM
- Kd ([2]; mAmGmCmCmUdGmGdG-s-dGmAmCmCmCmAmU-s-dI-s-mGdI-s-dGdI-s-dGmCmU-3T [2'-OMe 1-5,7,10-15,17,22,23, dI16,dI18,dI20 (inosine, parent base G), phosphorothioate 8/9,15/16,16/17,18/19,20/21 (N linkage letters left out), 3' inverted dT24], dPBS Ca/Mg + BSA, RT, 0.06 nM in Table 23): 0.035 nM

Sequence: AGCCUGGGGACCCAUGGGGGGCU [ARC1641]
- IC50 ([3]; 2'-OMe/2'-deoxy mix, dI20, PS, 3' idT [dI at 20 (written as parent G), PS after 8,15,16,18,20, 2'-OMe/2'-deoxy mix, 3' idT left out], FACS, 2.5 nM IgE): 1.8 nM
- Kd ([2]; mAmGmCmCmUdGmGdG-s-dGmAmCmCmCmAmU-s-dG-s-mGdG-s-dGdI-s-dGmCmU-3T [2'-OMe 1-5,7,10-15,17,22,23, dI20 (inosine, parent base G), phosphorothioate 8/9,15/16,16/17,18/19,20/21 (N linkage letters left out), 3' inverted dT24], dPBS Ca/Mg + BSA, RT): 0.4 nM

Sequence: GGGGCTACTTTATCCGTACCTCCCAGTGGGTAGCCCC [ARC476]
- IC50 ([3]; FACS, 15 nM IgE): 17.4 nM
- Kd [2]: 0.2 nM

Sequence: AGCCUGGGGACCCAUGGGGGGCU [ARC1382]
- IC50 ([3]; 2'-OMe/2'-deoxy mix, PS linkages as in Table 17, 3' idT [phosphorothioate linkages (internal N, left out) between 8-9, 18-19, 20-21, 2'-OMe/2'-deoxy mix (positions not given), 3' inverted dT at 24], FACS, 2.5 nM IgE): 6.9 nM
- Kd ([2]; 2'-OMe/2'-deoxy mix, PS linkages as in Table 17, 3' idT [phosphorothioate linkages (internal N, left out) between 8-9, 18-19, 20-21, 2'-OMe/2'-deoxy mix (positions not given), 3' inverted dT at 24], DPBS Mg/Ca, 0.1 mg/mL BSA, RT): 1.1 nM

Sequence: AGCCUGGGGACCCAUGGGGGGCU [ARC1643]
- IC50 ([3]; 2'-OMe/2'-deoxy mix, dI20, PS, 3' idT [20=dI (G parent), 24=3' inverted dT, phosphorothioate linkage N's left out (5^6, 7^8, 8^9, 15^16, 17^18, 18^19, 19^20, 20^21)], FACS, 2.5 nM IgE): 8 nM
- Kd ([2]; 2'-OMe/2'-deoxy mix, dI20, PS, 3' idT [20=dI (G parent), 24=3' inverted dT, phosphorothioate linkage N's left out (5^6, 7^8, 8^9, 15^16, 17^18, 18^19, 19^20, 20^21)], DPBS Mg/Ca, 0.1 mg/mL BSA, RT): 1.1 nM

Sequence: GGCGGCAGCTTTATCCGTACCTCCCAGTGGGCTGCTCC [DNA clone SEQ 149 with 3' idT]
- IC50 [1, 6]: > 250 nM

Sequence: AGCCUGGGGACCCAUGGGGGGCU [ARC1642]
- IC50 ([3]; 2'-OMe/2'-deoxy mix, dI16,dI20, PS, 3' idT [16=dI, 20=dI (G parent), 24=3' inverted dT, phosphorothioate linkage N's left out], FACS, 2.5 nM IgE): 1.8 nM
- Kd ([2]; 2'-OMe/2'-deoxy mix, dI16,dI20, PS, 3' idT [16=dI, 20=dI (G parent), 24=3' inverted dT, phosphorothioate linkage N's left out], DPBS Mg/Ca, 0.1 mg/mL BSA, RT): 0.4 nM

Sequence: GGAAAAGCGAAUCAUACACAAGAGUCGCGAUAGAUUGCUUGUGAAUGGUUUUGGUGGAAGCGGGCUCCGCCAGAGACCAACCGAGAA [rRfY clone SEQ 12]
- IC50 ([3]; 2'-F C,U, ELISA FceR1-Fc, FACS 7.1 nM (Table 25)): 5 nM
- Kd ([2]; 2'-F C and U, biphasic, KD2 9.85 nM, 1xSHMCK + 0.1 mg/mL tRNA, RT): 0.057 nM

Sequence: GGGAAAAGCGAAUCAUACACAAGAUCCGAGGGUGGGCAAUAGGCUCACAAGGGUUUCGCGUGAUGCUCCGCCAGAGACCAACCGAGAA [rRfY clone SEQ 18]
- IC50 ([3]; 2'-F C,U, ELISA FceR1-Fc, FACS 35 nM (Table 25)): 51.3 nM
- Kd ([2]; 2'-F C and U, biphasic, KD2 27.3 nM, 1xSHMCK + tRNA, RT): 1.14 nM

Sequence: AGCCUGGGGACCCAUGGGGGGCU [ARC1337]
- IC50 ([3]; 2'-OMe/2'-deoxy mix, PS, 3' idT [PS after 1,9,15,16,18,20, 2'-OMe/2'-deoxy mix, 3' idT left out], FACS, 2.5 nM IgE): 4.7 nM
- Kd ([2]; as printed dA-s-mGmCmCmUdGmGdGdG-s-mAmCmCmCmAmU-s-dG-s-mGdGdGdG-s-dGmCmU-3T [deoxy: 1,6,8,9,16,18-21, 2'-OMe: 2-5,7,10-15,17,22,23, phosphorothioate after 1,9,15,16,20 (also after 18 per given string), 24 = 3' inverted dT], dPBS Ca/Mg + BSA, RT): 0.2 nM

Sequence: GCCUGGGGACCCAUGGGGGGC [ARC444]
- IC50 [3, 4]: 52.4 nM
- Kd [2, 5]: 73 nM
